Assay results reported in patent publication US20160152995A1, “METHODS AND COMPOSITIONS TO IMPROVE THE SPREAD OF CHEMICAL SIGNALS IN PLANTS” (PIONEER HI-BRED INTERNATIONAL, INC., priority 2013, published 2016).

What was measured:
[1] = system: β-gal background activity; assay: First and second round library screen (L1, L2) for induction by sulfonylurea ligands, β-gal colony assay; format: cell-based, E. coli; details: for Inducer preference: β-gal colony assay, L2 library screened with each ligand at 2 ppm, numbers are the patent's inducer ligand numbers, atc for wt
Text: The original library was designed to thifensulfuron, but once induction activity was established with other SU compounds having potentially better soil and in planta stability properties than the original ligand, the evolution process was re-directed towards these alternative ligands. Of particular interest were herbicides metsulfuron, sulfometuron, ethametsulfuron and chlorsulfuron. For this objective, parental clones L1-9, -22, -29 and -44 were chosen for further shuffling. Clone L1-9 has strong activity on both ethametsulfuron and chlorsulfuron; clone L1-22 has strong sulfometuron activity; clone L1-29 has moderate metsulfuron activity; and clone L1-44 has moderate activity on metsulfuron, ethametsulfuron and chlorsulfuron. (Data not shown.). No clones found in the initial screen were exceptionally reactive to metsulfuron. These four clones were also chosen due to their relatively strong repressor activity, showing low β-gal background activity without inducer. Strong repressor activity is important for establishing a system which is both highly sensitive to the presence of inducer, and tightly off in the absence of inducer.
Based on the sequence information from parental clones L1-9, -22, -29 and -44, two second round libraries were designed, constructed and screened. The first library, L2, consisted of a ‘family’ shuffle whereby the amino acid diversity between the selected parental clones was varied using synthetic assembly of oligonucleotides to find clones improved in responsiveness to any of the four new target ligands.
The L2 oligonucleotides were assembled, cloned and screened as per the protocol described for library L1 except that each ligand was tested at 2 ppm to increase the stringency of the assay, which is a 10-fold reduction from 1st round library screening concentration.

E. coli assay strain Km3 [2] = assay: Liquid B-galactosidase assays of chlorsulfuron repressor hits (induction and repression)
Protocol: In order to create new diversity for shuffling the top clone from CsL3 was subjected to error prone PCR mutagenesis using Mutazyme (Stratagene). The mutated PCR product encoding the CsR ligand binding domain was inserted into library expression vector pVER7334 as a Sac1 to Asc1 fragment, transformed into library strain Km3 and plated onto LB+40 ug/ml Kanamycin and 50 ug/ml Carbenecillin. Approximately 10,000 colonies were then replica plated onto M9 Xgal assay medium +/−20 ppb Cs. Putative hits were then re-arrayed and replica plated onto the same assay medium. Performance was gauged by the level of blue colony color after 24 hrs incubation on inducer (induction) and 72 hrs incubation without inducer (repression). The top hits were then subjected to liquid B-galactosidase assays for quantitative assessment (Table 21).
Seventh round library CsL4.2 was designed based on the best diversity from CsL3 and CsL3-MTZ library screens (Table 14). The library was assembled with oligonucleotides shown below in Table 22. The first and last primers were used as rescue primers. CsL4.2 included a C-terminal 6×His-tag extension to facilitate protein purification. The library was assembled and cloned into vector pVER7334 Sac1 to Asc1, transformed into library assay strain Km3 and plated onto LB+40 ug/m1 Kanamycin and 50 ug/ml carbenecillin. Approximately 8,000 colonies were re-arrayed into 384-well format and replica plated onto M9 Xgal assay medium +/−2 ppb Cs. Putative hits were re-arrayed in 96-well format onto the same media for re-testing. Confirmed hits were then tested for induction and repression aspects in liquid culture using B-galactosidase assays.
Mutagenesis reactions were transformed into E. coli assay strain Km3 and plated onto LB+50 ug/ml Carbenecillin. Colonies were then re-arrayed into 384 well format and replica plated onto M9 Xgal assay medium +/−5 ppb Chlorsulfuron. Putative hits were then re-arrayed and analyzed by B-galactosidase assays relative to the parent clones (FIG. 10).

E. coli assay strain Km3 [3] = format: cell-based
Protocol: Library L6 was assembled, rescued, ligated into pVER7314, transformed into E. coli KM3 and plated out onto LB carbenicillin/kanamycin, and carbenicillin only control media as before. Library plates were then picked into 42 384-well microtiter plates (˜16,000 clones) containing 60 μl LB carbenicillin (Cb) broth per well. After overnight growth at 37° C. the cultures were stamped onto M9 assay plates containing no inducer, 0.2 ppm, and 2.0 ppm chlorsulfuron as test inducer. Following incubation at 30° C. for ˜48 hrs, putative hits responding to chlorsulfuron treatment as determined by increased blue colony color were re-arrayed into six 96-well microtiter plates and used to stamp a fresh set of M9 assay plates to confirm the above results. For a more detailed analysis of the relative induction by chlorsulfuron, digital photographs were taken of the plates after various time points of incubation at 30° C. and colony color intensity measured using the digital image analysis freeware program ImageJ (Rasband, US National Institutes of Health, Bethesda, Md., USA, rsb.info.nih.gov/ij/, 1997-2007). […] From this analysis sequence-activity relationships were derived. […] Briefly, C at position 100, and Q at positions 108 and 109 strongly correlated with activation, while R at position 138, L at position 170, and A or G at position 173 were highly preferred in clones with the lowest background activity. […] This information will aid in the design of further libraries to improve responsiveness to chlorsulfuron.
Library L8 construction and screening. Fourth round shuffling incorporated the best diversity from Rd3 shuffling (BB1860) as well as computational diversity (Table 14). As diversity was very high the library oligo mix was spiked into the parental hit variant oligo mix (5, 10, and 25% mixes) to titer down the number of residue changes per clone. In addition, to varying residues for Cs activity, seven residues (C68, C86, C88, C121, C144, C195, and C203) were varied with TetR family phylogenetic substitutions in an attempt to reduce the number of cysteine residues in the repressor. The PCR assembled libraries were cloned Sac1/Asc1 into pVER7334. This plasmid encodes PBAD promoter controlled expression of a plant optimized TetR DNA binding domain fused to the wt ligand binding domain of TetR(B) encoded by native Tn10 sequence on a Sac1 to Asc1 fragment. Approximately 15,000 clones were screened for blue colony color on the M9 Xgal assay plates +/−200 ppb Chlorsulfuron (Cs). Clones were ranked by ratio of color with inducer after 24 hrs incubation over colony color without inducer for 48 hrs of incubation. The sequence trend in the overall larger population of hits (first re-array) was that L55, R104, W105 and L170 were maintained while the C144A substitution was highly preferred. Sequence trends within the hit population were then noted with respect to repression, induction and fold induction (which corrects for leakiness).
Mutagenesis reactions were transformed into library strain Km3 and 96 colonies tested for substitution by DNA sequence analysis. Substitutions representing each possible residue at each position were then re-arrayed in triplicate onto M9 X-gal assay plates with 0, 20 and 200 ppb Chlorsulfuron. Plates were incubated at 37° C. for 24 and 48 hrs prior to imaging. Residue substitutions were then ranked by activation (emphasis on 20 ppb Cs) and repression characteristics (emphasis on 48 hr time point). The mutation with the greatest impact on activity was substitution of residue N82 to phenylalanine or tyrosine. […] All other preferred substitutions shown in Table 18 either improved repression or improved sensitivity to inducer without compromising repressor function. Certain residues were indispensible to function such as R104, W105, and W174 as substitutions were not allowed. Other residue positions such as R138 and K177 were also flagged as critical since functional substitutions were extremely limited. […]

[4] = library L1 initial screen, data not shown

B1: clone L1-29: SuR polypeptide, SEQ ID NO:10 (protein)
chain: MGSRLDKSKVINSALELLNEVGIEGLTTRKLAQKLGVEQPTLYWHVKNKRALLDALAIEMMDRHQTHFCPLEGESWQDFLRNTAKSMRCALLSHRDGAKVWLGTRWTEKQYETPENMLAFLCQQGFSLENALYAWSAVCNFTLGCVLSDQERQVAKEERETPTTDSMPPLLRQAWELSDHQGAEPAFLFGLELIICGLEKQLKCESGS
modifications: Sulfonylurea responsive repressor
With B1 the “induction activity on metsulfuron” value [1, 4] was “moderate” and the Inducer preference [1] was 9 (weak).

B2: L8-3F01: library L8 chlorsulfuron repressor hit, parent for saturation mutagenesis (protein)
chain: MARLDKSKVINSALELLNEVGIEGLTTRKLAQKLGVEQPTLYWHVKNKRALLDALAIEMMDRHQTHYLPLEGESWQDFLRNNAKSCRRALLSHRDGAKVCLGTRWTEQQYETAENMLAFLTQQGFSLENALYAVSAVRVFTLGAVLFDQESQVAKEERETPTTDSMPPLLRQAWELKDHQGAEPAFLFGLELIIAGLEKQLKRESGS
modifications: Sulfonylurea responsive repressor
notes: library L8 chlorsulfuron repressor hit, parent for saturation mutagenesis
With B2 the “F. IND = fold induction (IND/REP) (B-galactosidase assay)” value (E. coli assay strain Km3 [2]; CsL3-MTZ hits, 20 ppb Cs vs no inducer) was 1, the “IND = induction with 20 ppb CS (B-galactosidase assay)” value (E. coli assay strain Km3 [2]; CsL3-MTZ hits, liquid B-galactosidase assay, 20 ppb Cs) was 8 and the “REP = repression in absence of inducer (B-galactosidase assay)” value (E. coli assay strain Km3 [2]; CsL3-MTZ hits, liquid B-galactosidase assay, no inducer) was 7. For the same molecule, the “F. IND = fold induction (IND/REP) (B-galactosidase)” value (E. coli assay strain Km3 [2]; CsL4.2 hits, 20 ppb Cs vs no inducer) was 2.0, the “IND = induction with 20 ppb CS (B-galactosidase)” value (E. coli assay strain Km3 [2]; CsL4.2 hits, liquid B-galactosidase assay, 20 ppb Cs) was 0.9 and the “REP = repression in absence of inducer (B-galactosidase)” value (E. coli assay strain Km3 [2]; CsL4.2 hits, liquid B-galactosidase assay, no inducer) was 0.4. For the same molecule, the “F. IND = fold induction (IND/REP) (Colony Assay Results)” value (E. coli assay strain Km3 [3]; CsL3 hits, 20 ppb Cs vs no inducer) was 2.5, the “REP = repression in absence of inducer (Colony Assay Results)” value (E. coli assay strain Km3 [3]; CsL3 hits, M9 Xgal colony color, 0 ppb Cs) was 0.7 and the “IND = induction with 20 ppb CS (Colony Assay Results)” value (E. coli assay strain Km3 [3]; CsL3 hits, M9 Xgal colony color, 20 ppb Cs) was 1.6. The “IND = induction with 200 ppb Cs at 24 hrs (blue colony color intensity thru ImageJ analysis)” value (E. coli assay strain Km3 [3]; library L8 hits, M9 Xgal colony assay, 200 ppb Chlorsulfuron, 24 hrs) was 1.7, the “F. IND = fold induction: induction with 200 ppb Cs at 24 hrs/repression at 48 hrs” value (E. coli assay strain Km3 [3]; library L8 hits, M9 Xgal colony assay, ratio IND (200 ppb Cs, 24 hrs) / REP (48 hrs)) was 3.0 and the “REP = repression measured without inducer after 48 hrs (blue colony color intensity thru ImageJ analysis)” value (E. coli assay strain Km3 [3]; library L8 hits, M9 Xgal colony assay, without inducer, 48 hrs) was 0.6.

B3: clone L1-22: SuR polypeptide, SEQ ID NO:7 (protein)
chain: MGSRLDKSKVINSALELLNEVGIEGLTTRKLAQKLGVEQPTLYWHVKNKRALLDALAIEMMDRHHTHFCPLEGESWQDFLRNTAKSYRCALLSHRDGAKVCLGTAITEKQYETKENNLAFLCQQGFSLENALYARQAVRVFTLGCVLFDQEMQVAKEERETPTTDSMPPLLRQASELLDHQGAEPAFLFGLELIICGLEKQLKSESGS
modifications: Sulfonylurea responsive repressor
In the case of B3, the “induction activity on sulfometuron” value [1, 4] is reported as “strong” and the Inducer preference [1] is reported as 3.

B4: clone L1-44: SuR polypeptide, SEQ ID NO:13 (protein)
chain: MGSRLDKSKVINSALELLNEVGIEGLTTRKLAQKLGVEQPTLYWHVKNKRALLDALAIEMLDRHATHFCPLEGESWQDFLRNNAKSYRCALLSHRDGAKVYLGTAVTEKQYETAENQLAFLCQQGFSLENALYAVKAVAGFTLGCVLWDQESQVAKEERETPTTASMPPLLRQAVELADHQGAEPAFLFGLELIICGLEKQLKCESGS
modifications: Sulfonylurea responsive repressor
With B4 the “induction activity on chlorsulfuron” value [1, 4] was “moderate”, the “induction activity on ethametsulfuron” value [1, 4] was “moderate” and the “induction activity on metsulfuron” value [1, 4] was “moderate”. The Inducer preference [1] was 9 (weak).
